In article PMC5109244, “A pH‐ and ionic strength‐dependent conformational change in the neck region regulates DNGR‐1 function in dendritic cells” (The EMBO Journal, 2016):

Target: the molecule itself
Assay: non-reducing SDS-PAGE and Western blot; supernatants of 293F cells with FLAG-tagged ECD proteins, Laemmli buffer without reducing agent, HRP-conjugated anti-FLAG detection

B1: human DNGR-1 ECD (extracellular domain of human DNGR-1) (domain or fragment)
chain: not shown
modifications: glycosylated (mobility augmented by PNGase F)
notes: human DNGR-1 (CLEC9A), single isoform, extracellular domain K57–V241; Disulfide-bonded homodimer; also called human ECD; human isoform; source: 293F cells, transient transfection
stoichiometry N: 2
